{"source": "the nanobody polyreactivity screen of Harvey et al. (2022)", "data": [{"experiment": "yeast display, Sf9 membrane polyspecificity reagent, FACS + sequencing; frameworks hold sequencing errors", "method_in_brief": "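After 36–48 hours of galactose induction, yeast (Saccharomyces cerevisiae BJ5465) displaying a synthetic nanobody library were stained at 4 °C for 1 hour with 10% biotinylated, detergent-solubilized Sf9 membrane reagent. Streptavidin microbeads enriched the stained cells before FACS sorting into low and high (top ~1%) gates on anti-HA and streptavidin fluorescence. Each clone's polyreactivity label reflects its gate of origin.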", "values": [{"sequence": "QVQLVESGGGLVQAGGSLRLSCAASGLTFYYNAMGSYRQAPGKERELVAAISRSAGSTYYADSVKGRFTISRDNAKNTVYLQMHSLKPEDTAVYYCAVGYVYTRKGRVQPVKYDYWGQGTQVTVSS", "polyreactivity (PSR sort gate)": "high polyreactivity"}, {"sequence": "QVQLVESGGGLVQAGGSLRLSCAASGLTFYYNAMGWYRQAPGKERELVAAISRSGGSTYYADSVKGRFTISRDNAKNTVYLQMNSLKPEDTAVYYCAVGYVYTRKGRVQPVKYDYWGQGTQVTVSS", "polyreactivity (PSR sort gate)": "high polyreactivity"}, {"sequence": "QVQLVESGGGLVQAGGSLRLSCAASGLTFYYYAMGWYRPAPGKERELVARISSGTSTYYADSVKGRFTISRDNAKNTVYLQMNSLKPEDTAVYYCNARRKLGSTHGPWGGLEYWGQGTQVTVSS", "polyreactivity (PSR sort gate)": "low polyreactivity"}, {"sequence": "QVQLVESGGGLVQAGGSLRLSCAASGLTFYYYAMGWYRQAPGKEREIVAAISRSGGTTYYADSVKGRFTISRDTAKNTVYLQMNSLKPEDTAVYYCNAQWWRYWPSQVIFDYWGQGTQVTVSS", "polyreactivity (PSR sort gate)": "high polyreactivity"}, {"sequence": "QVQLVESGGGLVQAGGSLRLSCAASGLTFYYYAMGWYRQAPGKERELVAAISRSGGSTYYADSVKGRFTISRDNAKNTVYLQMNSLKPEDTAVYYCAADYFTLYPYRGYDYWGQGTQVTVSS", "polyreactivity (PSR sort gate)": "low polyreactivity"}, {"sequence": "QVQLVESGGGLVQAGGSLRLSCAASGLTFYYYAMGWYRQAPGKERELVAAMSIGGSTDYADSVKGRFTISRDNAKNTVYLQMNSLKPEDTAVYYCNVDDNSEYDYWGQGTQVTVSS", "polyreactivity (PSR sort gate)": "low polyreactivity"}, {"sequence": "QVQLVESGGGLVQAGGSLRLSCAASGLTFYYYAMGWYRQAPGKQRELVAAINSSGGITFYADSVKGRFTISRDNAKNTFYLQMNSLKPEDTAVYYCASGGRSNRYGYWGQGTQVTVSS", "polyreactivity (PSR sort gate)": "low polyreactivity"}, {"sequence": "QVQLVESGGGLVQAGGSLRLSCAASGLTFYYYVMGWYRQAPGKEREFVAAISRSGGSTYYADSVKGRFTISRDNAKNTVYLQMNSLKPEDTAVYYCASYTHDFGYKYWGQGTQVTVSS", "polyreactivity (PSR sort gate)": "high polyreactivity"}, {"sequence": "QVQLVESGGGLVQAGGSLRLSCAASGLTFYYYVMGWYRQAPGKERELVAAISSSGGNTYYADSVKGRFTISRDNAKNTVYLQMNSLKPEDTAVYYCAAGQKRTLDNYWGQGTQVTVSS", "polyreactivity (PSR sort gate)": "high polyreactivity"}, {"sequence": "QVQLVESGGGLVQAGGSLRLSCAASGLTINPNAMGWYRPAPGKERELVAAIDWSGGSTYCADSVKGRFTISRDNAKNTVYLQMNSLKPEDTAVYYSAADPPDRLFLYDYWGQGTQVTVSS", "polyreactivity (PSR sort gate)": "low polyreactivity"}, {"sequence": "QVQLVESGGGLVQAGGSLRLSCAASGLTIQNNAMGWYRQAPGKERDLVAVITRIGGSTYYADSVKGRFTISRDYEKNTVYLQMNSLKPEDTAVYYCAAGYRTRRRLHVYWGQGTQVTVSS", "polyreactivity (PSR sort gate)": "high polyreactivity"}, {"sequence": "QVQLVESGGGLVQAGGSLRLSCAASGLTITKNVMGWYRQAPGKERELVAVISRSGGSTYYADSVKGRFTISRDNAKNTVYLQMNSLKPEDTAVYYCNVKGPGPSRGNYWGQGTQVTVSS", "polyreactivity (PSR sort gate)": "low polyreactivity"}, {"sequence": "QVQLVESGGGLVQAGGSLRLSCAASGLTITQYVMGWYRQAPGKERDLDAAISWGGTSTYYADSVKGRFTISRDHAKNTVYLQMNSLKPEDTAVYYCNARSVYLSFWGFDYWGQGTQVTVSS", "polyreactivity (PSR sort gate)": "low polyreactivity"}, {"sequence": "QVQLVESGGGLVQAGGSLRLSCAASGLTIWRYAMGWYRQAPGKEREFVATISQNGGRTYYADSVKGRFTISRDNAKNTVYLQMNSLKPEDTAVYYCAADDWRWGYDYWGQGTQVTVSS", "polyreactivity (PSR sort gate)": "high polyreactivity"}, {"sequence": "QVQLVESGGGLVQAGGSLRLSCAASGLTIWYYAMGWSRQAPGKEREFVAAITSRGGDTYYADSVKGRFTISRDNAKNTVYLQMNSLKPEDTAVYYCAVRPRYYGTYRYYYWGQGTQVTVSS", "polyreactivity (PSR sort gate)": "high polyreactivity"}, {"sequence": "QVQLVESGGGLVQAGGSLRLSCAASGLTIYYYAMGWYRQAPGKERELVAAITWRGGSTYYADSVKGRFTISRDNAKNTVYLQMNSLKPEDTAVYYCAADPGPYGYYYWGQGTQVTVSS", "polyreactivity (PSR sort gate)": "low polyreactivity"}, {"sequence": "QVQLVESGGGLVQAGGSLRLSCAASGLTLAPNAMGWYRQAPGKERELVAAITRSGGDTYYADSVKGRFTISRDNAKNTVYLQMNSLKPEDTAVYYCAADYWFRYGTYEYWGQGTQVTVSS", "polyreactivity (PSR sort gate)": "high polyreactivity"}, {"sequence": "QVQLVESGGGLVQAGGSLRLSCAASGLTLDKYAMGWYRQAPGKERELVAGINSRGGSTYADSVKGRFTISRDNAKNTVYLQMNSMKPEDTAVYYCAADGKVQGGYYWGQGTQVTVSS", "polyreactivity (PSR sort gate)": "high polyreactivity"}, {"sequence": "QVQLVESGGGLVQAGGSLRLSCAASGLTLETIAMGGYRQAPGKERELVAGITYSGGTTYYADSVKGRFTISRDNAKNTVYLQMNSLKPEDTAVFYCAAHTRTSGHIYWGQGTQVTVSS", "polyreactivity (PSR sort gate)": "low polyreactivity"}, {"sequence": "QVQLVESGGGLVQAGGSLRLSCAASGLTLGDNPMGWYRQAPGKERELVAAITSGGVNTYYADSVKGRFTISRDNAKNTVYLQMNSLKPEDTAVYYCAVPNRVYSQQYKFSVRYYYWGQGTQVTVSS", "polyreactivity (PSR sort gate)": "low polyreactivity"}, {"sequence": "QVQLVESGGGLVQAGGSLRLSCAASGLTLYRYAMGWYRQAPGKERELVAGISWGGGSTYYADSVKGRFTISRDNAKNTVYLQMNSLKPEDTAVYYCAAGRLLYIPRYYYWGQGTQVTVSS", "polyreactivity (PSR sort gate)": "high polyreactivity"}, {"sequence": "QVQLVESGGGLVQAGGSLRLSCAASGLTLYRYTMGWYRQAPGKERELVAGISRGGSTYYADSVKGRFTISRDNAKNTVYLQMNSLKPEDTAVYYCAAYYGGHYYAYSYDYWGQGTQVTVSS", "polyreactivity (PSR sort gate)": "high polyreactivity"}, {"sequence": "QVQLVESGGGLVQAGGSLRLSCAASGLTLYYNAMGWYRQAPGKERELVAAISGSGGNTYYADSVKGRFTISRDNAKNTVYLQMNSLKPEDTAVYYCAKVVRVSHRYYYWGQGTQVTVSS", "polyreactivity (PSR sort gate)": "high polyreactivity"}, {"sequence": "QVQLVESGGGLVQAGGSLRLSCAASGLTSGYYAMGWYRQAPGKEREFVAAITWRSGSTYYADSVKGRFTISRDNAKNTVYLQMNSLKPEDTAVYYCAAVSVIYHGHNRSTYEYWGQGTQVTVSS", "polyreactivity (PSR sort gate)": "high polyreactivity"}, {"sequence": "QVQLVESGGGLVQAGGSLRLSCAASGLTSNGYTMGWYRQAPGKERELVAAITGRDGSTYADSVKGRFTISRDNAKNTVYLQMNSLKPEHTAVYYCAARLWRYRRYDYWGQGTQVTVSS", "polyreactivity (PSR sort gate)": "high polyreactivity"}, {"sequence": "QVQLVESGGGLVQAGGSLRLSCAASGNAMGWYRQAPGKERELVAAITRRVGSTYYADSVKGRFTISRDNAKNTVYLQMNSLKPEDTAVYYCAADNPSYNLWYGYWGQGTQVTVSS", "polyreactivity (PSR sort gate)": "low polyreactivity"}, {"sequence": "QVQLVESGGGLVQAGGSLRLSCAASGNIFAWYAMGGYRQAPGKERELVADISSRGGSTYYADSVKGRFTISRDNAKNTVYLQMNSLKPEDTAVYYCAAVWYWTQDYDYWGQGTQVTVSS", "polyreactivity (PSR sort gate)": "low polyreactivity"}, {"sequence": "QVQLVESGGGLVQAGGSLRLSCAASGNIFAYYAMGWYRQAPGKEREFVAAIRSSGVSTYYADSVKGRFTISRDNAKNTVYLQMNSLKPEDTAVYYCAADSITGGWLIVSPPFNYTYDYWGQGTQVTVSS", "polyreactivity (PSR sort gate)": "low polyreactivity"}, {"sequence": "QVQLVESGGGLVQAGGSLRLSCAASGNIFAYYAMGWYRQAPGKEREFVAAIRSSGVSTYYADSVKGRFTISRDNAKNTVYLQMNSLKPEDTAVYYCAADSITGGWLIVSPPYNYTYDYWGQGTQVTVSS", "polyreactivity (PSR sort gate)": "low polyreactivity"}, {"sequence": "QVQLVESGGGLVQAGGSLRLSCAASGNIFDLYAMGWYRQAPGKERELVAAITRSSSRTYYADSVKGRFTISRDNAKNTVYLQMNSLKPEDTAVYYCRAKQVNRFDYWGQGTKVTVSS", "polyreactivity (PSR sort gate)": "high polyreactivity"}, {"sequence": "QVQLVESGGGLVQAGGSLRLSCAASGNIFDTYVMGWYRQAPGKERELVAAITSDGGTYYADSVKGRFTSSRDNATNPVYLQMNSRQPEDTAVYYCAADTYYYPIHDYWGQGTQVTVSS", "polyreactivity (PSR sort gate)": "low polyreactivity"}, {"sequence": "QVQLVESGGGLVQAGGSLRLSCAASGNIFDVYAMGWYRQAPGKERELVADIDRGGTTYADSVKGRFTISRDNAKNTVYLQMNSLKPVDTAVYYCAADYVQGFGFYYQWLYDYWGQGTQVTVSS", "polyreactivity (PSR sort gate)": "low polyreactivity"}, {"sequence": "QVQLVESGGGLVQAGGSLRLSCAASGNIFGGNAMGWYRQAPGKERELVAAMTRGGSTYYADSVKGRFTISRDNAKNTVYLQMNSLKPEATAVYYCAKSYRLRSDYDYWGQGTQVTVSS", "polyreactivity (PSR sort gate)": "low polyreactivity"}, {"sequence": "QVQLVESGGGLVQAGGSLRLSCAASGNIFGVYAMGWYRQAPGKERELVAAIRYSTVSTYYADSVKGRFTISRDNAKNTVYLQMNSLKPEDTAVYYCAAQRRRYLPGHYYYWGQGTQVTVSS", "polyreactivity (PSR sort gate)": "high polyreactivity"}, {"sequence": "QVQLVESGGGLVQAGGSLRLSCAASGNIFGWNDMGWCRQAPGKEWEVVAAISWTGDSTYDADSVKGRFTISRDNAKNTVYLQMNSLKPEDTAVYYGAADTPTLQYLTPRSEFDAWGQGTQVTVSS", "polyreactivity (PSR sort gate)": "low polyreactivity"}, {"sequence": "QVQLVESGGGLVQAGGSLRLSCAASGNIFGWYAMGWYRQAPGKERELVAAISSGGRTNYADSVKGRFTISRDNAKNTVYLQMNSLKPEDTAVYYCAAERKLYGLYDYWGQGTQVTVSS", "polyreactivity (PSR sort gate)": "low polyreactivity"}, {"sequence": "QVQLVESGGGLVQAGGSLRLSCAASGNIFGYYAMGWYRQAPGKERELVAAIRTRGGRTYYADSVKGRFTISRDNAKTTVYLQMNSLKPEDTAVYYGAARSIAGFWRYDYWGQGTQVTVSS", "polyreactivity (PSR sort gate)": "high polyreactivity"}, {"sequence": "QVQLVESGGGLVQAGGSLRLSCAASGNIFILNAMGWYRQAPGKERELVAAISTTGGSTYYADSVKGRFTISRDNAKNTVYLQMNSLKPEDTAVYYCAAYTYRYSTFYYWGQGTQVTVSS", "polyreactivity (PSR sort gate)": "high polyreactivity"}, {"sequence": "QVQLVESGGGLVQAGGSLRLSCAASGNIFIRYAMGWYRQAPGKERDLVAAISQSGGGTSYADSVKGRFTISRDNAKNTVYLQMNSLKPEDTAVYYCNARYWRYPWRFGAWVGHDYWGQGTQVTVSS", "polyreactivity (PSR sort gate)": "low polyreactivity"}, {"sequence": "QVQLVESGGGLVQAGGSLRLSCAASGNIFKYYTMGWYRQAPGKERELVAAITSGGRTNYADSVKGRFTISRDNAKNTVYLQMNSLKPEDTAVYYCAAYDVIYSQGFDYWGQGTQVTVSS", "polyreactivity (PSR sort gate)": "low polyreactivity"}, {"sequence": "QVQLVESGGGLVQAGGSLRLSCAASGNIFLKNAMGWYRQAPGKERELVAAISKRGGSTYYAYSVKGRFTISRDNAKNTVYLQMNSLKPEDTAVYYCAAVLTKVWRGPEMDYWGQGTQVTVSS", "polyreactivity (PSR sort gate)": "high polyreactivity"}, {"sequence": "QVQLVESGGGLVQAGGSLRLSCAASGNIFLTYAMGWYRQAPGKERELVAAISRGGRTYYADSVKGRFTISRDNAKNTVYLQMNRLKPEDTAVYYCNVQPDRISRYDYWGQGTQVTVSS", "polyreactivity (PSR sort gate)": "high polyreactivity"}, {"sequence": "QVQLVESGGGLVQAGGSLRLSCAASGNIFLYYAMGWYRKAPGKERELVADIDSSGASTYYADSVKGRFTISRDNAKNTVYLQMNSLKPEDTAVYYCPAEFHWWYAGYDYGYWGLGTQVTVSS", "polyreactivity (PSR sort gate)": "low polyreactivity"}]}]}
